# Test results reported in patent US20200071380A1, “COMBINATION THERAPIES COMPRISING SIRP ALPHA-BASED CHIMERIC PROTEINS” (Shattuck Labs, Inc., priority 2018, published 2020).
# B1: mSIRPα-Fc-CD40L: Murine version of SIRPα-Fc-CD40L, made from murine proteins to assess activity in vivo (protein)
# chain: KELKVTQPEKSVSVAAGDSTVLNCTLTSLLPVGPIRWYRGVGPSRLLIYSFAGEYVPRIRNVSDTTKRNNMDFSIRISNVTPADAGIYYCVKFQKGSSEPDTEIQSGGGTEVYVLAKPSPPEVSGPADRGIPDQKVNFTCKSHGFSPRNITLKWFKDGQELHPLETTVNPSGKNVSYNISSTVRVVLNSMDVNSKVICEVAHITLDRSPLRGIANLSNFIRVSPTVKVTQQSPTSMNQVNLTCRAERFYPEDLQLIWLENGNVSRNDTPKNLTKNTDGTYNYTSLFLVNSSAHREDVVFTCQVKHDQQPAITRNHTVLGFAHSSDQGSMQTFPDNNATHNWNVPRDCGCKPCICTVPEVSSVFIFPPKPKDVLTITLTPKVTCVVVDISKDDPEVQFSWFVDDVEVHTAQTQPREEQFNSTFRSVSELPIMHQDWLNGKEFKCRVNSAAFPAPIEKTISKTKGRPKAPQVYTIPPPKEQMAKDKVSLTCMITDFFPEDITVEWQWNGQPAENYKNTQPIMNTNGSYFVYSKLNVQKSNWEAGNTFTCSVLHEGLHNHHTEKSLSHSPGKHRRLDKVEEEVNLHEDFVFIKKLKRCNKGEGSLSLLNCEEMRRQFEDLVKDITLNKEEKKENSFEMQRGDEDPQIAAHVVSEANSNAASVLQWAKKGYYTMKSNLVMLENGKQLTVKREGLYYVYTQVTFCSNREPSSQRPFIVGLWLKPSSGSERILLKAANTHSSSQLCEQQSVHLGGVFELQAGASVFVNVTEASQVIHRVGFSSFGLLKL
# What was measured:
# [1] = test system: splenic dendritic cells; assay: In vivo splenic dendritic cell activation; parameters: species or system mice; conditions: single IV dose; 6 or 24 hours, especially the 24 hour time point
# Experimental: For each panel, the samples are (left to right): untreated, sheep RBCs, αCD47 (MIAP301), αSIRPα (P84), mSIRPα-Fc-CD40L, mSIRPα-Fc-CD40L (24 Hrs), and αCD47 (MIAP301) (24 hrs). FIG. 9B is a quantitation of in vivo dendritic cell activation corresponding to FIG. 9A. Shown is the absolute percent of CD4+ and CD8+ dendritic cells; also gated on CD11c and DC1R2. In FIG. 9B, for each panel, the samples are (left to right): untreated, sheep RBCs, αCD47 (MIAP301), αSIRPα (P84), SIRPα-Fc-CD40L (150 μg), SIRPα-Fc-CD40L (300 μg), SIRPα-Fc-CD40L (300 μg) (24 Hrs), and αCD47 (MIAP301) (24 hrs).
# An in vivo assay to examine SIRPα/CD47 function in mice was describe in Yi et al., “Splenic Dendritic Cells Survey Red Blood Cells for Missing Self-CD47 to Trigger Adaptive Immune Responses. Immunity. 2015;43(4):764-75) (the contents of which is incorporated by reference in its entirety). This assay detects the activation status of splenic dendritic cells in response to SIRPa/CD47 inhibitors or to infused sheep red blood cells (RBC).
# After 6 or 24 hours, mice were euthanized and their spleens excised, dissociated, and assessed by flow cytometry for populations of activated CD4+ dendritic cells (DCs) (FIG. 9A, left panel) or CD8+dendritic cells (FIG. 9A, right panel); both populations of dendritic cells were also positive for MHC II (I-Ab), CD11c, and DC1R2.
# [2] = test system: peripheral blood cell populations; assay: Peripheral blood cell populations in treated mice; assay type: in vivo
# Experimental: FIG. 22B is a graph showing RBCs and test agents that were incubated at 37° C. for 24 hours and then the media was assessed at OD490 for changes in absorbance due to hemoglobin being released from lysing RBCs. […] FIG. […] Cell populations were assessed by flow cytometry and included CD20+ B cells, CD110+, CD4+/CD11c+, and CD8+/CD11c+ dendritic cells.
# Receptor occupancy was evaluated on circulating CD40+ lymphocytes.
# [3] = test system: WEHI3 leukemia cells; assay: Murine phagocytosis assay, BMDMs with WEHI3 leukemia cells; assay type: cell-based
# [4] = test system: A20 lymphoma; assay: Murine phagocytosis assay, BMDMs with A20 lymphoma cells; assay type: cell-based
# [5] = biological target: T1, murine CD40 (Mus musculus, UniProt P27512); assay: Murine CD40/NFκB-luciferase reporter in CHOK1 cells; assay type: cell-based
# T1 construct: expressed in transfected cells; host or cells: CHO-K1
# Experimental: Cells were cultured with a dose titration of recombinant human CD40L-his or SIRPα-Fc-CD40L, and luminescence was read on a luminometer after 6 hours. The left histograms are (−) Control, middle histograms are hCD40L-His and the right histograms are SIRPα-Fc-CD40L. […] CD8-depleted PBMC from 33-50 distinct human donors were cultured with media only, the neoantigen positive control KLH, the clinical stage non-activating control Exenatide, or 0.3, 3, 30, or 300 nM of SIRPα-Fc-CD40L. At 10 μg/ml on the X-axis, the samples are, top to bottom: hCD40L-Fc, SIRPα-Fc-CD40L, ahCD40 (HB14) ad (−) Control. […] The left histograms are (−) control, second from left are FC-mCD40L, second from right are anti-mCD40 (FGK4.5) and right are mSIRPα-Fc-CD40L.
# The murine version of the CD40/NFκB-luciferase system was established in CHOK1 cells.
# [6] = biological target: recombinant mouse CD47 and CD40 (Mus musculus, UniProt P27512+Q61735); assay: Dual functional ELISA of the murine surrogate; assay type: binding
# [7] = test system: CT26 tumors; assay: Syngeneic CT26 colon tumor model versus CD40/CD47 antibodies (Example 11); assay type: in vivo, mice
# Experimental: FIG. 20C: a similar CT26 experiment was initiated as described in FIG. 20A above, however mice were pre-treated on days −1, 1, and 10 with IP injections of 100 μg of either or both CD4/CD8 depleting antibodies. Mice were inoculated with CT26 tumors on day 0 and treated at a later starting date than FIG. 20A with mSIRPα-Fc-CD40L ARC on days 7, 9, and 11. […] In FIG. 20D and FIG. 20E, BALB/C mice were inoculated with WEHI3 tumors (FIG. 20D) or A20 tumors (FIG. 20E) subcutaneously on the rear flank, and then treated via IP injection with anti-CD20 or mSIRPα-Fc-CD40L on days 7, 9, and 11 (WEHI3) or days 10, 12, and 14 (A20); when tumors were established and reached approximately 57-60 mm^3. A cohort of mice were pre-treated with an interferon alpha receptor 1 (IFNAR1) blocking antibody ([…] by IP injection) on days -1, 1, and 10 (WEHI3) or on days −1, 1, and 13 (A20). FIG. 20F to FIG. 20H are graphs showing blockade of CD4, CD8, and IFNAR1. Peripheral blood analysis by flow cytometry of CD4 (FIG. 20F), CD8 (FIG. 20G), and IFNAR1 (FIG. 20H) depletion following depleting antibody treatment corresponding to FIG. 20C to FIG. 20E. Samples were normalized to untreated animals.
# Implanted CT26 tumors were allowed to grow to ˜30 mm^3 before treatment was initiated with a fixed regimen of two doses of either a CD40 agonist antibody (clone FGK4.5), a CD47 blocking antibody (clone MIAP301), a combination of the two antibodies, or the murine SIRPα-Fc-CD40L chimeric protein. […] Based on this observation, these experiments were repeated in the setting of antibody-mediated depletion of both CD4+ and CD8+ cells (FIG. 20C).
# CD4 and CD8 depletion was verified in the peripheral blood at multiple time points during the experiment (see, FIG. 20F and FIG. 20G).
# T1 sequence (P27512 20-289): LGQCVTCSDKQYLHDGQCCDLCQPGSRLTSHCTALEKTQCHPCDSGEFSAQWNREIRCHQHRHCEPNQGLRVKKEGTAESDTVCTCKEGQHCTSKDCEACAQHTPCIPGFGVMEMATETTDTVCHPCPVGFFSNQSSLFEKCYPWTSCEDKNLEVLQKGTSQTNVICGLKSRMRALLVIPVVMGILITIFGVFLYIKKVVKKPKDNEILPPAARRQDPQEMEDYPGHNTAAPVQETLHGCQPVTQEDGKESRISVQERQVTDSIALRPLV
molecule,measurement,setting,value
B1,"splenic CD4+ and CD8α+ DCs expressing high levels of MHCII, CD80, and CD86",[1],greatly upregulated splenic CD4+ and CD8α+ DCs
same,overall CD45+ peripheral lymphocytes,[2]; 24 hours following a single IP injection (300 μg),decrease in overall CD45+ peripheral lymphocytes
same,CD8+ dendritic cells in peripheral blood,[2]; mice,significant increase in CD8+ dendritic cells
same,CD40+ B cells in peripheral blood,[2]; mice,peripheral decrease in CD40+ B cells
same,phagocytic activity,[3],induced strong phagocytic activity
same,phagocytosis index compared with CD47 blocking antibody,[3],higher phagocytosis index than the CD47 blocking antibody
same,phagocytic activity,[4],induced strong phagocytic activity
same,phagocytosis index compared with CD47 blocking antibody,[4],higher phagocytosis index than the CD47 blocking antibody
same,"activation of the NFκB pathway, murine CD40 reporter",[5],consistently stimulated potent activation of the NFκB pathway
same,simultaneous binding to recombinant mouse CD47 and CD40,[6],simultaneous binding
same,rejection of a secondary tumor challenge among mice that rejected the primary tumor,[7]; no additional treatment,60%
same,mice rejecting primary tumors,"[7]; two doses, treatment started at ˜30 mm^3",62%
same,tumor growth / survival,"[7]; two doses, treatment started at ˜30 mm^3, versus vehicle controls",significant prolongation in tumor growth and survival
